# In article doi:10.1101/2021.12.30.474520, “Substrate Specificity for Human Histidine Methyltransferase SETD3” (bioRxiv, 2021):
# Ends that are not written are not given here.
# T1: human SETD3 (residues 1-497) (human, UniProt Q86TU7 1-497)
# T1 construct: The methods describe one recombinant human SETD3 with an N-terminal His6-tag without giving limits; Whether that protocol and tag apply to the 1-497 construct used for ITC and crystals is surmised; In ITC and in the crystals SETD3 was pre-incubated with SAH or sinefungin (SFG) at 1:10; also called SETD3_(1-497); histidine methyltransferase SETD3
# T1 sequence (looked up): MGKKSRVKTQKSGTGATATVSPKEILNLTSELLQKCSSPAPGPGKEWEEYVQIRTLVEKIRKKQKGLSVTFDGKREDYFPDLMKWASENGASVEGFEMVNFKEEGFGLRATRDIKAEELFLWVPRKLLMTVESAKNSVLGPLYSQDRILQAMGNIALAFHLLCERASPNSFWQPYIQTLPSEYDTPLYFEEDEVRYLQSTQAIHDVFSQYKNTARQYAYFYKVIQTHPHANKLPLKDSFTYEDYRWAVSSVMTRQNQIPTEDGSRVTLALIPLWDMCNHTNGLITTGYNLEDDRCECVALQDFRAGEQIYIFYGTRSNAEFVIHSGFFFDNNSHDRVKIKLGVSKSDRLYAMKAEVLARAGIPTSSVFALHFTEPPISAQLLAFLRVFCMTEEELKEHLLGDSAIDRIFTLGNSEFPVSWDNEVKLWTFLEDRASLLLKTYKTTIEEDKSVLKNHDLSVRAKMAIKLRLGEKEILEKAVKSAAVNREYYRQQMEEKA
# How the values were obtained:
# [1] = molecular target: T1, human SETD3 (residues 1-497); assay: ITC; peptide (0.5-1 mM) titrated into SETD3 (0.05 mM) pre-incubated with SAH (1:10); 25 °C; 20 mM Tris-HCl pH 8.0, 150 mM NaCl; one set of binding sites model; settings: both partners purified
# [2] = molecular target: T1, human SETD3 (residues 1-497); assay: ITC; peptide (0.5-1 mM) titrated into SETD3 (0.05 mM) pre-incubated with sinefungin (SFG) (1:10); 25 °C; 20 mM Tris-HCl pH 8.0, 150 mM NaCl; one set of binding sites model; settings: both partners purified
binder,measurement,setting,value
"TLKYPIEHGIVTNWDD-NH2 (peptide, UniProt P60709 66-81, looked up, β-actin, human, 16-mer, residues 66-81; Made on Rink amide resin, so a C-terminal amide is surmised; also called wild type βA-His73; wild type β-actin peptide; source: synthetic peptide (microwave-assisted SPPS on Rink amide resin, RP-HPLC)) [β-actin peptide, residues 66-81, with His73 (βA-His73)]",Kd,[1],700 nM
same,Kd,[2],1000 nM
